Assay results published in publication PMC11172336, “Exploring Syndecan-4 and MLP and Their Interaction in Primary Cardiomyocytes and H9c2 Cells” (Cells, 2024).
Where “and” joins values, the source holds several entries; their conditions need not be identical. Identical values can stand only once. Where no end group is shown, it is not given here. The star is where a group is joined. Biotin = O=C1N[C@H]2[C@H](CS[C@H]2CCCCC(=O)*)N1

B1: biotinylated MLP-WT peptide aa 50-79 (peptide, UniProt P50461 50-79, looked up)
peptide: Biotin-AAHESEIYCKVCYGRRYGPKGIGYGQGAGC
modifications: cysteine pairing not given here
notes: Muscle LIM Protein (MLP, CSRP3), human, 30-mer, residues 50-79, covering the end of LIM1 and the NLS; also called MLP peptide aa 50–79; source: synthetic peptide (GenScript, >80% purity)
B2: biotinylated MLP-WT peptide aa 125-154 (peptide)
peptide: not shown
modifications: N-terminal biotin tag
notes: source: synthetic peptide (GenScript, >80% purity)
B3: MLP, endogenous in adult rat primary cardiomyocytes (natural protein, UniProt P50463 1-194, looked up)
chain: MPNWGGGAKCGACDKTVYHAEEIQCNGRSFHKTCFHCMACRKALDSTTVAAHESEIYCKVCYGRKYGPKGIGFGQGAGCLSTDTGEHLGLQFQQSPKPARAATTSNPSKFSAKFGESEKCPRCGKSVYAAEKVMGGGKPWHKTCFPCAICGKSLESTNVTDKDGELYCKVCYAKNFGPTGIGFGGLTHQVEKKE
notes: Muscle LIM Protein (MLP, CSRP3), rat; source: endogenous, enriched subcellular fractions of freshly isolated adult rat LV cardiomyocytes
B4: recombinant 6xHis-MLP G72R (natural protein, human, UniProt P50461 1-194, looked up)
chain: MPNWGGGAKCGACEKTVYHAEEIQCNGRSFHKTCFHCMACRKALDSTTVAAHESEIYCKVCYGRRYGPKGIRYGQGAGCLSTDTGEHLGLQFQQSPKPARSVTTSNPSKFTAKFGESEKCPRCGKSVYAAEKVMGGGKPWHKTCFRCAICGKSLESTNVTDKDGELYCKVCYAKNFGPTGIGFGGLTQQVEKKE
notes: Muscle LIM Protein (MLP, CSRP3), human, with a patient mutation; source: bought: GenScript (recombinant protein, >80% purity); not shown: His6, N-terminal, kept
B5: recombinant 6xHis-MLP W4R (natural protein, human, UniProt P50461 1-194, looked up)
chain: MPNRGGGAKCGACEKTVYHAEEIQCNGRSFHKTCFHCMACRKALDSTTVAAHESEIYCKVCYGRRYGPKGIGYGQGAGCLSTDTGEHLGLQFQQSPKPARSVTTSNPSKFTAKFGESEKCPRCGKSVYAAEKVMGGGKPWHKTCFRCAICGKSLESTNVTDKDGELYCKVCYAKNFGPTGIGFGGLTQQVEKKE
notes: Muscle LIM Protein (MLP, CSRP3), human, with a patient mutation; the eight mutated recombinant proteins are named in the abstract; source: bought: GenScript (recombinant protein, >80% purity); not shown: His6, N-terminal, kept
B6: recombinant 6xHis-MLP K69R (natural protein, human, UniProt P50461 1-194, looked up)
chain: MPNWGGGAKCGACEKTVYHAEEIQCNGRSFHKTCFHCMACRKALDSTTVAAHESEIYCKVCYGRRYGPRGIGYGQGAGCLSTDTGEHLGLQFQQSPKPARSVTTSNPSKFTAKFGESEKCPRCGKSVYAAEKVMGGGKPWHKTCFRCAICGKSLESTNVTDKDGELYCKVCYAKNFGPTGIGFGGLTQQVEKKE
notes: as for B4
B7: recombinant 6xHis-MLP Q91L (natural protein, human, UniProt P50461 1-194, looked up)
chain: MPNWGGGAKCGACEKTVYHAEEIQCNGRSFHKTCFHCMACRKALDSTTVAAHESEIYCKVCYGRRYGPKGIGYGQGAGCLSTDTGEHLGLLFQQSPKPARSVTTSNPSKFTAKFGESEKCPRCGKSVYAAEKVMGGGKPWHKTCFRCAICGKSLESTNVTDKDGELYCKVCYAKNFGPTGIGFGGLTQQVEKKE
notes: as for B4
B8: recombinant 6xHis-MLP-WT (natural protein, human, UniProt P50461 1-194, looked up)
chain: MPNWGGGAKCGACEKTVYHAEEIQCNGRSFHKTCFHCMACRKALDSTTVAAHESEIYCKVCYGRRYGPKGIGYGQGAGCLSTDTGEHLGLQFQQSPKPARSVTTSNPSKFTAKFGESEKCPRCGKSVYAAEKVMGGGKPWHKTCFRCAICGKSLESTNVTDKDGELYCKVCYAKNFGPTGIGFGGLTQQVEKKE
notes: Muscle LIM Protein (MLP), encoded by CSRP3, human, 194 amino acids; on the native blot a mixture of monomer, dimer, trimer and tetramer; also called full-length recombinant 6xHis-MLP-WT protein; Muscle LIM Protein; source: bought: GenScript (recombinant protein, >80% purity); not shown: His6, N-terminal, kept
B9: recombinant 6xHis-MLP L44P (natural protein, human, UniProt P50461 1-194, looked up)
chain: MPNWGGGAKCGACEKTVYHAEEIQCNGRSFHKTCFHCMACRKAPDSTTVAAHESEIYCKVCYGRRYGPKGIGYGQGAGCLSTDTGEHLGLQFQQSPKPARSVTTSNPSKFTAKFGESEKCPRCGKSVYAAEKVMGGGKPWHKTCFRCAICGKSLESTNVTDKDGELYCKVCYAKNFGPTGIGFGGLTQQVEKKE
notes: as for B4
B10: recombinant 6xHis-MLP C58G (natural protein, human, UniProt P50461 1-194, looked up)
chain: MPNWGGGAKCGACEKTVYHAEEIQCNGRSFHKTCFHCMACRKALDSTTVAAHESEIYGKVCYGRRYGPKGIGYGQGAGCLSTDTGEHLGLQFQQSPKPARSVTTSNPSKFTAKFGESEKCPRCGKSVYAAEKVMGGGKPWHKTCFRCAICGKSLESTNVTDKDGELYCKVCYAKNFGPTGIGFGGLTQQVEKKE
notes: as for B4
B11: recombinant 6xHis-MLP Y66C (natural protein, human, UniProt P50461 1-194, looked up)
chain: MPNWGGGAKCGACEKTVYHAEEIQCNGRSFHKTCFHCMACRKALDSTTVAAHESEIYCKVCYGRRCGPKGIGYGQGAGCLSTDTGEHLGLQFQQSPKPARSVTTSNPSKFTAKFGESEKCPRCGKSVYAAEKVMGGGKPWHKTCFRCAICGKSLESTNVTDKDGELYCKVCYAKNFGPTGIGFGGLTQQVEKKE
notes: as for B4
B12: recombinant 6xHis-MLP R64C (natural protein, human, UniProt P50461 1-194, looked up)
chain: MPNWGGGAKCGACEKTVYHAEEIQCNGRSFHKTCFHCMACRKALDSTTVAAHESEIYCKVCYGCRYGPKGIGYGQGAGCLSTDTGEHLGLQFQQSPKPARSVTTSNPSKFTAKFGESEKCPRCGKSVYAAEKVMGGGKPWHKTCFRCAICGKSLESTNVTDKDGELYCKVCYAKNFGPTGIGFGGLTQQVEKKE
notes: as for B4

Tests used:
recombinant 6xHis-MLP-WT = target: B8; test: ELISA; wells coated with 10 µg of WT or mutated full-length 6xHis-MLP recombinant protein in PBS; biotinylated overlapping MLP-WT 30-mer peptides at 2–5 µM for two hours at 37 °C; signal of PBS-coated wells subtracted; conditions: both partners purified
[1] = target: B10; test: as above; conditions: both partners purified
[2] = target: B9; test: as above; conditions: both partners purified
[3] = target: the molecule itself; test: immunoblotting under native conditions; 20 µg of cytoplasmic-, nuclear-, membrane- and cytoskeletal-enriched fractions of adult rat cardiomyocytes in native sample buffer, not boiled, SDS-containing running buffer; blot with C-terminal anti-MLP (#R06991)
[4] = target: the molecule itself; test: immunoblotting under native conditions; 0.5 µg of recombinant 6xHis-MLP WT or mutated protein in native sample buffer, not boiled, SDS-containing running buffer; blot with C-terminal anti-MLP (#R06991); densitometry

Binder | binding result [4] | other results
B1 |  | binding result (recombinant 6xHis-MLP-WT): binds; binding result [1]: binds
B2 |  | binding result [2]: binds; binding result (recombinant 6xHis-MLP-WT): binds; binding result [1]: binds
B3 |  | stoichiometry N [3]: 2 and 3 and 4
B4 | binds | 
B5 | binds | 
B6 | binds | 
B7 | binds | 
B8 |  | stoichiometry N [4]: 2 and 3 and 4
B9 | binds | 
B10 | binds | 
B11 | binds | 
B12 | binds | 
